Reference: US12098175B2, “Peptide inhibitors targeting the CXCL12/HMGB1 interaction and uses thereof” (INSTITUTE FOR RESEARCH IN BIOMEDICINE, priority 2019, dated 2024)
Where two headings read alike, the source gives them in different places. Where no end group is shown, it is not given here.

What was measured:
Solubility in PBS = assay type: physicochemical
[1] = target: T1, CXCL12/HMGB1 heterocomplex (Homo sapiens, UniProt P09429); test: In vitro chemotaxis (Boyden chamber): CXCL12/HMGB1-induced migration of 300.19 PreB cells expressing human CXCR4; assay type: cell-based, murine; settings: peptides at 100 μM; CXCL12 1 nM, HMGB1 300 nM; compared with glycyrrhizin 200 μM; 300.19 PreB cells with human CXCR4
T1 sequence (P09429 1-215): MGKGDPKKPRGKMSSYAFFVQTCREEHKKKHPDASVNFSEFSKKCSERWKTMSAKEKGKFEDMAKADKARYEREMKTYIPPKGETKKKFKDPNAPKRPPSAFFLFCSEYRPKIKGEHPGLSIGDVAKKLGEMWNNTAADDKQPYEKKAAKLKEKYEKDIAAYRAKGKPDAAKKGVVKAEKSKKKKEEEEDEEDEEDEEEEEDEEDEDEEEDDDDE
Protocol: The 13 identified and synthesized peptides were tested in in vitro chemotaxis, to assess their efficacy as inhibitors of the CXCL12/HMGB1-induced migration, on a murine cell line expressing the human CXCR4.
All peptides, at 100 μM, were incubated with CXCL12 and HMGB1 before assessing chemotaxis, to evaluate their ability to interfere with the heterocomplex formation, and inhibit the synergistic effect of HMGB1.

CXCL12 = CXCL12 (Homo sapiens, UniProt P48061); test: In vitro chemotaxis: migration induced by CXCL12 alone, 300.19 PreB cells expressing human CXCR4; assay type: cell-based, murine; settings: peptides at 100 μM; CXCL12 1 nM; 300.19 PreB cells with human CXCR4
CXCL12, sequence (P48061 22-93, species assumed): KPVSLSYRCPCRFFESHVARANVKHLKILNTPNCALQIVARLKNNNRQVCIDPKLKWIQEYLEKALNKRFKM
Protocol: Further experiments were performed with CXCL12 alone to identify peptides affecting cell migration induced by CXCL12 alone.
Briefly, chemotaxis was performed using Boyden chambers with 5 μm pore membranes. […] 200 μM glycyrrhizin were used as positive control.

HMGB1 [2] = target: T2, HMGB1 (Homo sapiens, UniProt P09429); test: Binding affinity to HMGB1 by microscale thermophoresis (MST); settings: for Kd (μM), equilibrium dissociation constant: MST, Example 6 (Table 4), highest peptide concentration 500 μM
T2 sequence (P09429 1-215): T1 sequence (P09429 1-215)
Protocol: The protein and the peptide were incubated for 15 minutes at room temperature, to allow binding. MST analysis was performed using premium-coated capillary tubes on a NanoTemper® instrument using the following experimental settings: LED power of 5% (for fluorescence excitation), and laser power 40% (to create temperature gradient). Kd values were calculate from compound concentration-dependent changes in normalized fluorescence (Fnorm). Independent experiments were performed to calculate the Kd value. Data were analyzed by the NanoTemper® analysis software.
MST analysis was performed using premium-coated capillary tubes on a NanoTemper instrument using the following experimental settings: LED power of 5% (for fluorescence excitation), and laser power 40% (to create temperature gradient). Kd values were calculated from compound concentration-dependent changes in normalized fluorescence (Fnorm). Independent experiments were performed to calculate the Kd value. Data were analyzed by the NanoTemper analysis software.

HMGB1 [3] = target: T2, HMGB1; settings: literature value (Mollica et al. 2007); read-out: Kd reported for glycyrrhizin; cited from earlier work

| Molecule | Inhibition of the enhanced migration induced by the CXCL12/HMGB1 heterocomplex [1] | Effect on cell migration induced by CXCL12 alone (CXCL12) | other results |
| --- | --- | --- | --- |
| GYHYEAWIH [HBP08-A6] |  |  | Solubility (Solubility in PBS): poorly soluble |
| YHICWYGDY (HBP12) | inhibit the enhanced migration induced by the CXCL12/HMGB1 heterocomplex more than glycyrrhizin at 200 μM | inhibit the migration induced by the chemokine alone |  |
| WISNWILMW (HBP05) | inhibit the enhanced migration induced by the CXCL12/HMGB1 heterocomplex more than glycyrrhizin at 200 μM | inhibit the migration induced by the chemokine alone |  |
| GYHYE [Pentapept-1] |  |  | Kd (μM), equilibrium dissociation constant (HMGB1 [2]): No binding*; Kd (μM), equilibrium dissociation constant (HMGB1 [2]; listed as pentapept-1): no binding was observed |
| CC1(C)[C@@H](O[C@H]2O[C@H](C(=O)O)[C@@H](O)[C@H](O)[C@H]2O[C@@H]2O[C@H](C(=O)O)[C@@H](O)[C@H](O)[C@H]2O)CC[C@]2(C)[C@H]3C(=O)C=C4[C@@H]5C[C@@](C)(C(=O)O)CC[C@]5(C)CC[C@@]4(C)[C@]3(C)CC[C@@H]12 [glycyrrhizin] |  |  | Kd (HMGB1 [3]): 125 µM |
| ERWIH [Pentapept-2, ERWIH] |  |  | Kd (HMGB1 [2]): 200 ± 80 µM |
| HWTLANWCR (HBP07) | inhibit the enhanced migration induced by the CXCL12/HMGB1 heterocomplex more than glycyrrhizin at 200 μM | do not affect CXCL12-induced cell migration |  |
